Test results from US7332318B2, “Calcium-independent phospholipases A2, genes thereof and promoter of the same” (Japan Science and Technology Agency, priority 2001, dated 2008).
One block for each molecule: values may come before it.

Key:
[1] = test system: KIDS cPLA2 mRNA in hippocampal dentate gyrus; assay: In situ hybridization of brain slices after kainic acid stimulation; type: in vivo, Wister rat; details: rat brain, riboprobe C, with or without kainic acid stimulation
Protocol: Brain of Wister rat of 3 weeks age stimulated by kainic acid was fixed by 4% paraformaldehyde and then a frozen slice was prepared. Each of the radio-labeled riboprobes B, C and D was subjected to a hybridization reaction with the frozen slice and the labeled image of the slice from each probe was confirmed to be same. Then, frozen slice of the brain was prepared again using riboprobe C with or without a kainic acid stimulation and an expression pattern of KIDS cPLA2 mRNA was investigated.

[2] = test system: nerve stem cells; assay: Expression of KIDS cPLA2 in nerve stem cells after stimulation; type: cell-based; details: kainic acid 10 μM, probe P19-P27, FIG. 14
Protocol: Then expression of KIDS cPLA 2 of the present invention using nerve stem cells by means of stimulation by kainic acid (10 μM), by kainic acid and CNQX (10 μM KA and 20 μM CNQX) and by glutamic acid (50 μM) was investigated.
The result is shown in FIG. 14 which is a picture as a substitute for a drawing. In FIG. 14, the probe used is P90-P27 of 252 bp (the said sequence is a sequence of a moiety which is common in the full-length cPLA2) in the upper column, P19-P27 of 290 bp (the said sequence contains a sequence specific to KIDS cPLA2 of the present invention) in the second column and G3 PDH and nestin in the lower two columns as controls.
The lanes in FIG. 14 are control and stimulations by kainic acid (KA (10 μM)), by kainic acid and CNQX (KA (10 μM)+CNQX (20 μM)) and by glutamic acid (Glu (50 μM)) from the left side.

[3] = test system: KIDS cPLA2 protein in hippocampal dentate gyrus; assay: Immunohistochemical dyeing of brain slices after kainic acid stimulation; type: in vivo, cPLA2a knockout mouse, C57/Black 6J mouse, Wister rat; details: anti-KIDS cPLA2 stump antibody
Protocol: Brains of cPLA2a knockout mouse and C57/Black 6J mouse of 6-10 weeks age and Wister rat of 3 weeks age stimulated by kainic acid were fixed with 4% paraformaldehyde and then frozen slices were prepared. Immunoreaction of an anti-KIDS cPLA2-specific stump antibody with the brain slice was carried out overnight at 4° C. and expression of KIDS cPLA2 protein was confirmed by a secondary antibody labeled with gold colloid.

[4] = Enzymatic (phospholipase A2) activity of KIDS cPLA2 and cPLA2α on radiolabelled PC substrates; type: biochemical; details: difference from the control
Source text: Then enzymatic activity of cPLA2α and KIDS cPLA2 of the present invention were investigated. There were used 1-Pam-2-[^14C] arachidonoyl-PC (black dots (●) in FIG. 7), 1-Pam-2-[^14C]Iinoleoyl-PC (black triangles (▴) in FIG. 7), 1-Pam-2-[^14C]oleoyl-PC (black squares (▪) in FIG. 7) and 1-Pam-2-[^14C]palmitoyl-PC (asterisks (*) in FIG. 7) as the substrates for testing the enzymatic activity of each of them. In FIG. 7, the left side is that for KIDS cPLA2 of the present invention while the right side is that for cPLA2α.
Incidentally, the phospholipase A2 activity is given in terms of the difference from the control.

[5] = Calcium dependency of enzymatic activity (EDTA-Ca); type: biochemical; details: substrate 1-Pam-2-[^14C]arachidonoyl-PC
Source text: Then, calcium dependency of cPLA2α and KIDS cPLA2 of the present invention on enzymatic activity was investigated using 1-Pam-2-[^14C]arachidonoyl-PC as a substrate. EDTA-Ca was used as a calcium source.
The solid lines in FIG. 8 are the case of KIDS cPLA of the present invention while the broken lines therein are the case of cPLA2α. In each of them, the black dots (●) are the data in the absence of EDTA-Ca while the open circles (◯) are those in the presence of EDTA-Ca.
It is noted that, in the case of KIDS cPLA2 of the present invention, an activity of around 40% is maintained even […] while, in the case of cPLA2α, the activity is reduced to an extent of around 10-15% […].

Molecule: C=C(C)[C@H]1CN[C@H](C(=O)O)[C@H]1CC(=O)O [kainic acid]
Expression pattern of KIDS cPLA2 mRNA [1]: drastically induced in the hippocampal dentate gyrus | Expression of KIDS cPLA2 [2]: specific expression of KIDS cPLA2 of the present invention was confirmed | Expression of KIDS cPLA2 protein [3]: drastically induced in the hippocampal dentate gyrus

Phospholipase A2 Activity ([4]; substrate 1-Pam-2-[^14C]arachidonoyl-PC): 24.4 ± 1.4 pmol/min | Phospholipase A2 Activity ([4]; substrate 1-Pam-2-[^14C]linoleoyl-PC): 11.9 ± 1.8 pmol/min | Phospholipase A2 Activity ([4]; substrate 1-Pam-2-[^14C]oleoyl-PC): 9.1 ± 1.1 pmol/min | Phospholipase A2 Activity ([4]; substrate 1-Pam-2-[^14C]palmitoyl-PC): 9.8 ± 1.7 pmol/min
B1: cPLA2α: cytosolic phospholipase A2 (cPLA2α) of 85 kDa, the conventional full-length enzyme (protein, UniProt P47712 1-749, looked up)
chain: MSFIDPYQHIIVEHQYSHKFTVVVLRATKVTKGAFGDMLDTPDPYVELFISTTPDSRKRTRHFNNDINPVWNETFEFILDPNQENVLEITLMDANYVMDETLGTATFTVSSMKVGEKKEVPFIFNQVTEMVLEMSLEVCSCPDLRFSMALCDQEKTFRQQRKEHIRESMKKLLGPKNSEGLHSARDVPVVAILGSGGGFRAMVGFSGVMKALYESGILDCATYVAGLSGSTWYMSTLYSHPDFPEKGPEEINEELMKNVSHNPLLLLTPQKVKRYVESLWKKKSSGQPVTFTDIFGMLIGETLIHNRMNTTLSSLKEKVNTAQCPLPLFTCLHVKPDVSELMFADWVEFSPYEIGMAKYGTFMAPDLFGSKFFMGTVVKKYEENPLHFLMGVWGSAFSILFNRVLGVSGSQSRGSTMEEELENITTKHIVSNDSSDSDDESHEPKGTENEDAGSDYQSDNQASWIHRMIMALVSDSALFNTREGRAGKVHNFMLGLNLNTSYPLSPLSDFATQDSFDDDELDAAVADPDEFERIYEPLDVKSKKIHVVDSGLTFNLPYPLILRPQRGVDLIISFDFSARPSDSSPPFKELLLAEKWAKMNKLPFPKIDPYVFDREGLKECYVFKPKNPDMEKDCPTIIHFVLANINFRKYRAPGVPRETEEEKEIADFDIFDDPESPFSTFNFQYPNQAFKRLHDLMHFNTLNNIDVIKEAMVESIEYRRQNPSRCSVSLSNVEARRFFNKEFLSKPKA
modifications: full-length
notes: cytosolic phospholipase A2 (cPLA2α) of 85 kDa, the conventional full-length enzyme
Activity maintained in the presence of calcium (relative ratio) ([5]; EDTA-Ca, FIG. 9): 10-15% | Change of enzymatic activity by the presence of calcium ([5]; with and without EDTA-Ca, FIG. 8): sudden reduction in the activity by the presence of calcium
